How the values were obtained:
[1] = biological target: T1, FcRn of neonatal mouse intestine (mouse) (UniProt Q61559); experiment: cell-based or functional assay
T1 sequence (looked up): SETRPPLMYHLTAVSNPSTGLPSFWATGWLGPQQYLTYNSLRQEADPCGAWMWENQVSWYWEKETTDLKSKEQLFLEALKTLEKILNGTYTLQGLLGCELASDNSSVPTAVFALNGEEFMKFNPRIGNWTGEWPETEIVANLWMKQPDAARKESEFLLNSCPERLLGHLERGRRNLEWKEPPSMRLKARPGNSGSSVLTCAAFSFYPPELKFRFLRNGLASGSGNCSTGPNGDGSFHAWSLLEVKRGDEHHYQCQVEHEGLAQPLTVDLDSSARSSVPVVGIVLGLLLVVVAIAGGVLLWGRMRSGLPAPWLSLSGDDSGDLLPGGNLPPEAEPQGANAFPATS
T1 sequence (b2m, looked up): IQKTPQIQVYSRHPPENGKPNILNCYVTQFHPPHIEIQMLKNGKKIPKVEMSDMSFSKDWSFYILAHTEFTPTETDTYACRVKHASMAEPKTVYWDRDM

[2] = biological target: recombinant soluble mouse FcRn (mouse) (UniProt Q61559); experiment: inhibition of 125I-sFcRn binding to murine IgG1-Sepharose; molar ratio of inhibitor/FcRn given as 1/500
[3] = biological target: recombinant soluble mouse FcRn (mouse) (UniProt Q61559); experiment: inhibition of 125I-sFcRn binding to murine IgG1-Sepharose; molar ratio of inhibitor/FcRn given as 1/1000

Inhibition of transmission (%) of radiolabeled mIgG1 across the intestine of neonatal mice [1]: 51.4%
% inhibition [2]: 24.7%
% inhibition [3]: 45.6%
B1: complete murine IgG1 molecule (antibody, part only; not given: variable domains and Fab arms, not shown: another chain or arm of the molecule)
Fc: VPRDCGCKPCICTVPEVSSVFIFPPKPKDVLTITLTPKVTCVVVDISKDDPEVQFSWFVDDVEVHTAQTQPREEQFNSTFRSVSELPIMHQDWLNGKEFKCRVNSAAFPAPIEKTISKTKGRPKAPQVYTIPPPKEQMAKDKVSLTCMITDFFPEDITVEWQWNGQPAENYKNTQPIMNTNGSYFVYSKLNVQKSNWEAGNTFTCSVLHEGLHNHHTEKSLSHSPGK
modifications: Glycosylated whole IgG1 from hybridoma or mammalian cells; used free, 125I-labelled or coupled to Sepharose. Two heavy chains are joined at the hinge.

Reference: patent publication US20020098193A1
